Assay results as given in article doi:10.1101/2022.08.07.503104.

How the values were obtained:
[1] = biological target: Recombinant Tat (86 residues, BH10 isolate) (HIV-1 (BH10 isolate)) (UniProt P69697); assay: SPR
[2] = biological target: CypA-CA complex formed beforehand (human | HIV-1) (UniProt P62937); assay: MST
[3] = biological target: Recombinant human CypA (human) (UniProt P62937); assay: MST
[4] = biological target: Tat-CypA complex formed beforehand (HIV-1 (BH10 isolate) | human) (UniProt P69697); assay: MST
[5] = biological target: Tat-CypA complex formed beforehand (HIV-1 (BH10 isolate) | human) (UniProt P69697); assay: SPR

CypA-CA complex formed beforehand (from UniProt P62937 1-165)
Kd [1]: 95 nM

Recombinant Tat (86 residues, BH10 isolate) (from UniProt P69697 1-86) (natural protein)
Kd [2]: 55 nM

Recombinant HIV-1 capsid protein (CA) (natural protein)
Kd [3]: 8300 nM | Kd [4]: 5500 nM | Kd [5]: 110 nM
